# Source: the DeepSol protein solubility set
# Experiment: soluble on expression in E. coli; label from the status in PepcDB or PDB records
row,Sequence,soluble on expression in E. coli
1,MHIYRYEENPLITPEDVPPHHDGFEVIGAFNAGVARFQGEVLLLLRVAERPVSDDPNIVKAPVWNPKTGKVDVYEFRKDDPRYDFSDPRVIREAGAERFAYLTSLSYLRLARSQDGRRFVIDDRPFVYPSNELETFGIEDPRITYIDGTYYIYFSAVSPKGVGEAMVSTTDFRTVTHHGMIFAPENKDVLIFPEKINGKYYALHRPVPRSNGRPEVWIAESENLLHWGNHRFLFGLREGKWDSARIGGGAVPIKTEYGWLELYHGASDDHRYCMGAVLLDLNDPAKVIARSERPLVEPEADYEVNGFFGRVVFSCGALVDGDIVKMYYGAADTSMACVELKLDEILDSLVKV,soluble
2,MHLYDKRPGGGASFSQILGQAKNRQGIFFNTTFAVMGHVAKASGRVTETDIRIATLLMDQMRLTGDARKEAQQAFREGKEPDFDLCSSLQAFRAVTQGRQELVQMFIEIQIQTALSDGELDAAEHAILMTVAQELGYGRLEHHHHHH,not soluble
3,MHNLANLYRTGWPGGVEKDTQKALDLYQKMIDLDVPQGFYDMGAMIGNRAGVKNPATDGLTFLDKAASLGNPPALTELGKFYIYVAKKKDLGLAYTHCAASQGYAPASYELGAYYKIVEHNFPKALVYYQVSVSQGGKSAAFFLSRVFGSETPPASAMWYAPDEKLREAYYSIYKKLEADPLEHHHHHH,not soluble
4,MHPASGVMVTVETPETDTVFNRCRPAADGDIVVPHGSTAVLGTTSVDVDDADEFATPDAAVERVIDECSALLPAASDAPIRTTYWGVRPLYSPSDYGDDARAISRGFYVLDHADRDDTAGLTTVVGGKLTTHRLMAEATADLVADRLGVTEPSRTANEPLPGHDDPERLDALVDTFDAASPADADARLEHHHHHH,not soluble
5,MHRLKYLTGYPPQLTAQVAHLVTENRLGEVLVQRYPTVHDVRTDRALYDFTVAVKNEFMRTAQPLSRVLYDGKIHAIKNALGTHTFVSRVQGGKLKAKHEIRIASIFREAPLEFLKMIVVHELAHLKEKEHNKAFYQLCEYMEPRYHQLEFDTRLFLTQVEIAGSPYLPLEHHHHHH,soluble
6,MHRPITAGHTTSRLILDQLKQISRTPSESSVQSALSQQASMSSPVLERSKSAPALLTAAQRTMLAQVGACNSHLTSDENMAINELRLHKPRLPKDTWFFTDPNKDPDDVVTYTLGKQLQAEGFVHITDVVATLGDAEVRSQRAEMAKGVFNKLGLHDVHVSRGRDYAMNSLQSKEHAKFLLEGHALRAGPGEIHRDSLQDMSRRLARAPHGVGIVVIAGMSDINALITTCPDMVRERVDDITIMGGVEPLKDADGFVQPDARAYNNATDMDAARSLYRKAQELGIPLRIVTKEAAYKTAVSPSFYEGIAGSGHPVGHYLRDVQKSALKGLWEGIQAGLLPGLDDSWFFRTFMPNAQIEAAQLDKNKESSFEDIWPKVTKLNLYDPLTLLASVPGAAKLLFKPKAIHTEGFGVVEQVGPDDVTHPEKAKLLMSALAKSALVQSTVAPD,not soluble
7,MHRTYSLRNSRAPTASQLQNPPPPPSTTKGRFFGKGGLAYSFRRSAAGAFGPELSRKLSQLVKIEKNVLRSMELTANERRDAAKQLSIWGLENDDDVSDITDKLGVLIYEVSELDDQFIDRYDQYRLTLKSIRDIEGSVQPSRDRKDKITDKIAYLKYKDPQSPKIEVLEQELVRAEAESLVAEAQLSNITRSKLRAAFNYQFDSIIEHSEKIALIAGYGKALLELLDDSPVTPGETRPAYDGYEASKQIIIDAESALNEWTLDSAQVKPTLSFKQDYEDFEPEEGEEEEEEDGQGRWSEDEQEDGQIEEPEQEEEGAVEEHEQVGHQQSESLPQQTTA,soluble
8,MHSSILLLLSFASITTACPGLLNIFGGAGGGGCGGCGGGCGGGCGCAPPPPPCCGGGCGGCGRKKRSLPEKPTFVGIADSGDDVMCNTPALKKIILENIQTTASDSSKAINTVLESRQIQRFVVVCSEKPFVFTFRADAAYCGATKNGHNCHAFAM,not soluble
9,MHTIELRNISKVIKNNIVLSNINYKFESGKVYGLKGRNGSGKSMLLRTISGLIRPTSGSVIIDGKELHKEIESPGNIGIVVENAGLYPDFTGFYNLKYLAGIMGQISDDEIINAIKRVGLDLYDKKIVKKYSLGMKQKIVIAQAIMEKPDFLLLDEPTNALDESGVKLLREIVQEEATRGALVIIASHNQEDIELLCDKVIIMADGKISDEYVNSREMNLCSEETQ,not soluble
